Results as given in the Immune Epitope Database (IEDB).

Key:
[1] = target: HLA-A*24:02; assay: IEDB peptide-MHC binding, purified MHC/competitive/fluorescence; ≥ and ≤ were set here for values at or beyond the usual limits of such assays
[2] = target: HLA-B*18:01; assay: IEDB peptide-MHC binding, purified MHC/competitive/radioactivity; filed as Kd, often an IC50 or EC50 that approximates it; ≥ and ≤ were set here for values at or beyond the usual limits of such assays
[3] = target: HLA-B*40:01; assay: as above
[4] = target: HLA-B*40:02; assay: as above
[5] = target: HLA-B*44:02; assay: as above
[6] = target: HLA-B*44:03; assay: as above
[7] = target: HLA-B*45:01; assay: as above
[8] = target: HLA-A*02:01; assay: IEDB peptide-MHC binding, purified MHC/competitive/fluorescence; ≥ and ≤ were set here for values at or beyond the usual limits of such assays; settings: source organism: Vaccinia virus WR
[9] = target: HLA-B*48:01; assay: IEDB peptide-MHC binding, purified MHC/direct/fluorescence; filed as Kd, often an IC50 or EC50 that approximates it; ≥ and ≤ were set here for values at or beyond the usual limits of such assays; settings: source organism: Cryptosporidium parvum Iowa II
[10] = source organism: Lymphocytic choriomeningitis virus (strain Armstrong)
[11] = source organism: SARS coronavirus Tor2
[12] = source organism: Lassa virus Josiah
[13] = source organism: Mammarenavirus brazilense
[14] = source organism: Mammarenavirus guanaritoense

Sequence: ADIGEWAFW
- IC50 ([1]; source organism: Sudan ebolavirus): 19.4 µM

Sequence: ADQAIANGV
- Kd [2, 10]: ≥ 33.8 µM
- Kd [3, 10]: ≥ 73.5 µM
- Kd [4, 10]: 3.33 µM
- Kd [5, 10]: 14.9 µM
- Kd [6, 10]: ≥ 30.2 µM
- Kd [7, 10]: ≥ 20.7 µM

Sequence: AKCIEYVTL
- IC50 ([1]; source organism: Vaccinia virus Copenhagen): ≥ 172 µM

Sequence: AVKYLEGHG
- IC50 ([1]; source organism: Zaire ebolavirus): ≥ 117 µM

Sequence: EELFYSYAT
- Kd [2, 11]: 1.04 µM
- Kd [3, 11]: 0.691 µM
- Kd [4, 11]: 0.0246 µM
- Kd [5, 11]: 0.278 µM
- Kd [6, 11]: 0.169 µM
- Kd [7, 11]: 0.00316 µM

Sequence: EILNTIQFM
- IC50 [8]: 7.58 µM
- IC50 ([1]; source organism: Vaccinia virus WR): ≥ 111 µM

Sequence: EYSKDSRNK
- IC50 ([1]; source organism: Vaccinia virus): ≥ 284 µM

Sequence: FDAAVSGGL
- Kd [2, 12]: ≥ 77.5 µM
- Kd [3, 12]: ≥ 20 µM
- Kd [4, 12]: 5.87 µM
- Kd [5, 12]: ≥ 77.9 µM
- Kd [6, 12]: ≥ 78.1 µM
- Kd [7, 12]: ≥ 28.8 µM

Sequence: FQWAIQDGI
- Kd [9]: 0.082 µM

Sequence: GDNEIEYGF
- Kd [2, 13]: 4.07 µM
- Kd [3, 13]: 9.48 µM
- Kd [4, 13]: 1.28 µM
- Kd [5, 13]: 4.34 µM
- Kd [6, 13]: 17 µM
- Kd [7, 13]: 12.2 µM

Sequence: GEKSRCYSL
- Kd [2, 14]: ≥ 77.5 µM
- Kd [3, 14]: 0.488 µM
- Kd [4, 14]: 0.0147 µM
- Kd [5, 14]: 2.05 µM
- Kd [6, 14]: 11.9 µM
- Kd [7, 14]: 1.24 µM
